pKd: −log10 of the molar value.
Key:
[1] = test system: Nc1ncnc2c1ncn2[C@@H]1O[C@H](COP(=O)(O)OP(=O)(O)OP(=O)(O)O)[C@@H](O)[C@H]1O; test: purified protein; conditions: Mg2+ ([…] MgCl2)
[2] = molecular target: CheW (Escherichia coli) (UniProt P0A964); conditions: cited from earlier work
[3] = molecular target: Helicobacter pylori transducer-like protein D lacking the N-terminal His tag, TlpD(-His) (Helicobacter pylori (SS1 strain)) (UniProt B5Z6X0); test: AUC; interference experiments, 3 x 28 uM TlpD(-His) in PBS (pH 7), 1 mM TCEP, 20 C, 55,000 rpm; KD from the integrated monomer and dimer peaks; dimer to monomers

Sequence of CheA (P07363 whole entry): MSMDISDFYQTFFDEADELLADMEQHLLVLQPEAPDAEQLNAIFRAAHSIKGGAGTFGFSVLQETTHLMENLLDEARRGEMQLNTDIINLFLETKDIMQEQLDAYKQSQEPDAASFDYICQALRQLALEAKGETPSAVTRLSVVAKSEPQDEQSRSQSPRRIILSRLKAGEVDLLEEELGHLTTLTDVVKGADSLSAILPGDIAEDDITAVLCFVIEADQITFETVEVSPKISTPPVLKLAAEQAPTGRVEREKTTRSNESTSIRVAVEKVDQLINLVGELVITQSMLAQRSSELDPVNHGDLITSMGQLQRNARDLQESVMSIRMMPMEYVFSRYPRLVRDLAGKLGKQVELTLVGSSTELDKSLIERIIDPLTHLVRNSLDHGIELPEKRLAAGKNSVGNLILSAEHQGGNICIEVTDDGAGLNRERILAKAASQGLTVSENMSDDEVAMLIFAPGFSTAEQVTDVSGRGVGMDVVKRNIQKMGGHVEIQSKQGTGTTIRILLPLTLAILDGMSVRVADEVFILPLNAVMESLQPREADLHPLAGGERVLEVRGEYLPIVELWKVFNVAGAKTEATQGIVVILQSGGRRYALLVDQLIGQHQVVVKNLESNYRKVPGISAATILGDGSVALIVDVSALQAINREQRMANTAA

CheA (Helicobacter pylori G27) gave a Km [1] of 136 µM.
In the case of CheA (from UniProt P07363), the pKd [2] is listed as 4.77.
Work on “Helicobacter pylori transducer-like protein D lacking the N-terminal His tag, TlpD(-His) (from UniProt B5Z6X0 1-433) (receptor)” yielded a pKd [3] of 7.18.

Source: PMC6715182, “Helicobacter pylori senses bleach (HOCl) as a chemoattractant using a cytosolic chemoreceptor” (PLoS Biology, 2019)
